From paper doi:10.1101/2025.07.23.666269 (bioRxiv, 2025)

How the values were obtained:
[1] = biological target: recombinant ɸ6 protein P2 (cystovirus ɸ6) (UniProt P11124); assay: MST
[2] = biological target: recombinant ɸ6 protein P2 (cystovirus ɸ6) (UniProt P11124); assay: asymmetric flow field flow fractionation
[3] = biological target: recombinant ɸ6 protein P7, full length (cystovirus ɸ6); assay: asymmetric flow field flow fractionation
[4] = biological target: minor protein P7 of cystovirus ɸ6 (in virion-derived particles) (cystovirus ɸ6); assay: cryo-EM structure
[5] = biological target: RNA-dependent RNA polymerase P2 of cystovirus ɸ6 (in virion-derived particles) (cystovirus ɸ6) (UniProt P11124); assay: cryo-EM structure
cryo-EM structure = biological target: the molecule itself; assay: cryo-EM structure
[6] = biological target: T1, recombinant ɸ6 protein P1 (cystovirus ɸ6, UniProt P11126 1-769); assay: co-sedimentation
T1 sequence (looked up): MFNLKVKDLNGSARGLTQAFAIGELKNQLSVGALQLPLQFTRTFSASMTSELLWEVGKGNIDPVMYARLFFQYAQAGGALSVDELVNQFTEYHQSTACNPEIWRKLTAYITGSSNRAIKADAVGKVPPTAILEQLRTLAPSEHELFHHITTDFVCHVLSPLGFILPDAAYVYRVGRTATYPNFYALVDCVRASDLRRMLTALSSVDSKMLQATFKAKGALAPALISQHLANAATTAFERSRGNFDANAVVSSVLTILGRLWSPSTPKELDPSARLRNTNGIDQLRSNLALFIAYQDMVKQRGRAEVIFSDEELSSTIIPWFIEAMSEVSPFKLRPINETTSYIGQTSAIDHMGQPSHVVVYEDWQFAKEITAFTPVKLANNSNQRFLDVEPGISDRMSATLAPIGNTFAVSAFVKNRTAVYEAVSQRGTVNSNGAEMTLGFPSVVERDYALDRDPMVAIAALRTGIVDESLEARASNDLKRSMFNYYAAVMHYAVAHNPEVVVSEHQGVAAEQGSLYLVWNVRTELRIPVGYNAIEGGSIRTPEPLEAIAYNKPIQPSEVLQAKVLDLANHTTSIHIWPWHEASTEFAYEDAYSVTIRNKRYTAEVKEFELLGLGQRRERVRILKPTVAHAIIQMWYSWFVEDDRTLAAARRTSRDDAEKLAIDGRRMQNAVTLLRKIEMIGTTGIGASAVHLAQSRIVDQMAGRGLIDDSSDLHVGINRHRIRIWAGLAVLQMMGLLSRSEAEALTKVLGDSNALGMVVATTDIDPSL

## recombinant ɸ6 protein P7, full length (natural protein)
[1]
  Kd: 1.3 µM
[2]
  stoichiometry N (P7 dimer per P2 monomer): 1
[3]
  stoichiometry N: 2

## C-terminally truncated P7 comprising residues 2–115 (domain or fragment)
[1]
  Kd: 15.1 µM

## minor protein P7 of cystovirus ɸ6 (in virion-derived particles) (natural protein)
[4]
  stoichiometry N: 4
[5]
  stoichiometry N (P7 dimers per P2): 4

B1: outer layer protein P8 of cystovirus ɸ6 (in virion-derived particles) (natural protein)
chain: MLLPVVARAAVPAIESAIAATPGLVSRIAAAIGSKVSPSAILAAVKSNPVVAGLTLAQIGSTGYDAYQQLLENHPEVAEMLKDLSFKADEIQPDFIGNLGQYREELELVEDAARFVGGMSNLIRLRQALELDIKYYGLKMQLNDMGYRS
cryo-EM structure
  stoichiometry N: 3

B2: major capsid protein P1 of cystovirus ɸ6 (in virion-derived particles) (natural protein)
chain: MFNLKVKDLNGSARGLTQAFAIGELKNQLSVGALQLPLQFTRTFSASMTSELLWEVGKGNIDPVMYARLFFQYAQAGGALSVDELVNQFTEYHQSTACNPEIWRKLTAYITGSSNRAIKADAVGKVPPTAILEQLRTLAPSEHELFHHITTDFVCHVLSPLGFILPDAAYVYRVGRTATYPNFYALVDCVRASDLRRMLTALSSVDSKMLQATFKAKGALAPALISQHLANAATTAFERSRGNFDANAVVSSVLTILGRLWSPSTPKELDPSARLRNTNGIDQLRSNLALFIAYQDMVKQRGRAEVIFSDEELSSTIIPWFIEAMSEVSPFKLRPINETTSYIGQTSAIDHMGQPSHVVVYEDWQFAKEITAFTPVKLANNSNQRFLDVEPGISDRMSATLAPIGNTFAVSAFVKNRTAVYEAVSQRGTVNSNGAEMTLGFPSVVERDYALDRDPMVAIAALRTGIVDESLEARASNDLKRSMFNYYAAVMHYAVAHNPEVVVSEHQGVAAEQGSLYLVWNVRTELRIPVGYNAIEGGSIRTPEPLEAIAYNKPIQPSEVLQAKVLDLANHTTSIHIWPWHEASTEFAYEDAYSVTIRNKRYTAEVKEFELLGLGQRRERVRILKPTVAHAIIQMWYSWFVEDDRTLAAARRTSRDDAEKLAIDGRRMQNAVTLLRKIEMIGTTGIGASAVHLAQSRIVDQMAGRGLIDDSSDLHVGINRHRIRIWAGLAVLQMMGLLSRSEAEALTKVLGDSNALGMVVATTDIDPSL
cryo-EM structure
  stoichiometry N: 2

B3: recombinant ɸ6 protein P2 (enzyme, cystovirus ɸ6)
chain: PRRAPAFPLSDIKAQMLFANNIKAQQASKRSFKEGAIETYEGLLSVDPRFLSFKNELSRYLTDHFPANVDEYGRVYGNGVRTNFFGMRHMNGFPMIPATWPLASNLKKRADADLADGPVSERDNLLFRAAVRLMFSDLEPVPLKIRKGSSTCIPYFSNDMGTKIEIAERALEKAEEAGNLMLQGKFDDAYQLHQMGGAYYVVYRAQSTDAITLDPKTGKFVSKDRMVADFEYAVTGGEQGSLFAASKDASRLKEQYGIDVPDGFFCERRRTAMGGPFALNAPIMAVAQPVRNKIYSKYAYTFHHTTRLNKEEKVKEWSLCVATDVSDHDTFWPGWLRDLICDELLNMGYAPWWVKLFETSLKLPVYVGAPAPEQGHTLLGDPSNPDLEVGLSSGQGATDLMGTLLMSITYLVMQLDHTAPHLNSRIKDMPSACRFLDSYWQGHEEIRQISKSDDAILGWTKGRALVGGHRLFEMLKEGKVNPSPYMKISYEHGGAFLGDILLYDSRREPGSAIFVGNINSMLNNQFSPEYGVQSGVRDRSKRKRPFPGLAWASMKDTYGACPIYSDVLEAIERCWWNAFGESYRAYREDMLKRDTLELSRYVASMARQAGLAELTPIDLEVLADPNKLQYKWTEADVSANIHEVLMHGVSVEKTERFLRSVMPR
modifications: RED fluorescent dye NT-647-NHS (Monolith Protein Labeling Kit RED-NHS), in the MST only
[6]
  binding result: binds

B4: packaging NTPase P4 of cystovirus ɸ6 (in virion-derived particles) (enzyme, UniProt P11125 2-332, looked up)
chain: PIVVTQAHIDRVGIAADLLDASPVSLQVLGRPTAINTVVIKTYIAAVMELASKQGGSLAGVDIRPSVLLKDTAIFTKPKAKSADVESDVDVLDTGIYSVPGLARKPVTHRWPSEGIYSGVTALMGATGSGKSITLNEKLRPDVLIRWGEVAEAYDELDTAVHISTLDEMLIVCIGLGALGFNVAVDSVRPLLFRLKGAASAGGIVAVFYSLLTDISNLFTQYDCSVVMVVNPMVDAEKIEYVFGQVMASTVGAILCADGNVSRTMFRTNKGRIFNGAAPLAADTHMPSMDRPTSMKALDHTSIASVAPLERGSVDTDDRNSAPRRGANFSL
cryo-EM structure
  stoichiometry N: 6
